According to paper PMC11408749:
Blank lines part the entries; values can stand above or below the substance they belong to.

Experiments:
[1] = molecular target: DNMT3BΔ214 (residues 215–853) D817G (human) (UniProt Q9UBC3)
[2] = molecular target: DNMT3BΔ214 (residues 215–853) D817G (human) (UniProt Q9UBC3); assay: AUC; sedimentation velocity, 40,000 rpm, 15 h, 20 C; 20 mM Tris-HCl pH 8.0, 300 mM NaCl, 1 mM TCEP, 5% glycerol; WT DNMT3BΔ214-3L at 2.5, 5.0 and 6.25 uM, mutant complexes at 5 uM; c(s) model in SEDFIT
[3] = molecular target: DNMT3BΔ214 (residues 215–853) H814R (human) (UniProt Q9UBC3)
[4] = molecular target: DNMT3BΔ214 (residues 215–853) H814R (human) (UniProt Q9UBC3); assay: AUC; sedimentation velocity, 40,000 rpm, 15 h, 20 C; 20 mM Tris-HCl pH 8.0, 300 mM NaCl, 1 mM TCEP, 5% glycerol; WT DNMT3BΔ214-3L at 2.5, 5.0 and 6.25 uM, mutant complexes at 5 uM; c(s) model in SEDFIT
[5] = molecular target: DNMT3BΔ214 (residues 215–853) V818M (human) (UniProt Q9UBC3)
[6] = molecular target: DNMT3BΔ214 (residues 215–853) V818M (human) (UniProt Q9UBC3); assay: AUC; sedimentation velocity, 40,000 rpm, 15 h, 20 C; 20 mM Tris-HCl pH 8.0, 300 mM NaCl, 1 mM TCEP, 5% glycerol; WT DNMT3BΔ214-3L at 2.5, 5.0 and 6.25 uM, mutant complexes at 5 uM; c(s) model in SEDFIT

- MTase activity of the DNMT3BΔ214-3L complex (MTase-Glo, 0.2 uM complex, 36-bp dsDNA), percent of the WT complex [1]: 5.43 % of WT
- percent of the population as hetero-tetramer (168 kDa peak, DNMT3B dimerised) [2]: 4.9%
Substance: DNMT3BΔ214 (residues 215–853) D817G (from UniProt Q9UBC3 215-853) (domain or fragment)

- MTase activity of the DNMT3BΔ214-3L complex (MTase-Glo, 0.2 uM complex, 36-bp dsDNA), percent of the WT complex [3]: 1.09 % of WT
- percent of the population as hetero-tetramer (168 kDa peak, DNMT3B dimerised) [4]: 1.5%
Substance: DNMT3BΔ214 (residues 215–853) H814R (from UniProt Q9UBC3 215-853) (domain or fragment)

- MTase activity of the DNMT3BΔ214-3L complex (MTase-Glo, 0.2 uM complex, 36-bp dsDNA), percent of the WT complex [5]: 35.9 % of WT
- percent of the population as hetero-tetramer (168 kDa peak, DNMT3B dimerised) [6]: 28.3%
Substance: DNMT3BΔ214 (residues 215–853) V818M (from UniProt Q9UBC3 215-853) (domain or fragment)
